# B1: JUNB (parent)
# chain: FVKALDDLHKMNHVTPPNVSLGAT
# B2: MGC27345 (parent)
# chain: KYMPHLCQDSSGEVSCQCQLHPPR
# Variants of: B1
# Assay: protein stability index of a GFP-peptide fusion (GPS, HEK-293T) (PSI 1-6); higher = more stable
# Conditions: c terminus: a fixed tail appended
# 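Further: lentivirally expressed fusions sorted by FACS into six bins by GFP to DsRed ratio, PSI derived from sequencing read proportions per bin multiplied by bin number.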
row,Variant,protein stability index
1,FKKALDDLHKMNHVTPPNVSLGAT,3.07
2,FIKALDDLHKMNHVTPPNVSLGAT,2.22
3,FLKALDDLHKMNHVTPPNVSLGAT,2.79
4,FQKALDDLHKMNHVTPPNVSLGAT,3.18
5,FAKALDDLHKMNHVTPPNVSLGAT,2.96
6,FDKALDDLHKMNHVTPPNVSLGAT,4.22
7,FMKALDDLHKMNHVTPPNVSLGAT,2.7
8,FRKALDDLHKMNHVTPPNVSLGAT,3.54
9,FWKALDDLHKMNHVTPPNVSLGAT,2.47
10,FSKALDDLHKMNHVTPPNVSLGAT,4.07
11,FTKALDDLHKMNHVTPPNVSLGAT,3.33
12,FCKALDDLHKMNHVTPPNVSLGAT,2.96
13,FNKALDDLHKMNHVTPPNVSLGAT,4.52
14,FGKALDDLHKMNHVTPPNVSLGAT,3.5
15,FYKALDDLHKMNHVTPPNVSLGAT,2.51
16,FEKALDDLHKMNHVTPPNVSLGAT,3.98
17,FFKALDDLHKMNHVTPPNVSLGAT,2.03
18,FHKALDDLHKMNHVTPPNVSLGAT,3.07
19,FPKALDDLHKMNHVTPPNVSLGAT,3.05
20,IVKALDDLHKMNHVTPPNVSLGAT,2.84
21,QVKALDDLHKMNHVTPPNVSLGAT,3.52
22,PVKALDDLHKMNHVTPPNVSLGAT,4.57
23,MVKALDDLHKMNHVTPPNVSLGAT,3.6
24,SVKALDDLHKMNHVTPPNVSLGAT,4.09
25,RVKALDDLHKMNHVTPPNVSLGAT,4.38
26,TVKALDDLHKMNHVTPPNVSLGAT,4.37

row,Variant,protein stability index
1,EVKALDDLHKMNHVTPPNVSLGAT,4.27
2,KVKALDDLHKMNHVTPPNVSLGAT,3.92
3,DVKALDDLHKMNHVTPPNVSLGAT,4.6
4,YVKALDDLHKMNHVTPPNVSLGAT,1.54
5,NVKALDDLHKMNHVTPPNVSLGAT,3.95
6,LVKALDDLHKMNHVTPPNVSLGAT,3.29
7,HVKALDDLHKMNHVTPPNVSLGAT,4
8,WVKALDDLHKMNHVTPPNVSLGAT,2.51
9,CVKALDDLHKMNHVTPPNVSLGAT,2.61
10,GVKALDDLHKMNHVTPPNVSLGAT,4.05
11,AVKALDDLHKMNHVTPPNVSLGAT,4.1
12,VVKALDDLHKMNHVTPPNVSLGAT,3.59
13,FVNALDDLHKMNHVTPPNVSLGAT,1.86
14,FVQALDDLHKMNHVTPPNVSLGAT,1.94
15,FVIALDDLHKMNHVTPPNVSLGAT,1.98
16,FVAALDDLHKMNHVTPPNVSLGAT,1.69
17,FVCALDDLHKMNHVTPPNVSLGAT,3.29
18,FVFALDDLHKMNHVTPPNVSLGAT,3.15
19,FVEALDDLHKMNHVTPPNVSLGAT,2.44
20,FVLALDDLHKMNHVTPPNVSLGAT,1.66
21,FVDALDDLHKMNHVTPPNVSLGAT,2.23
22,FVGALDDLHKMNHVTPPNVSLGAT,2.12
23,FVHALDDLHKMNHVTPPNVSLGAT,2.23
24,FVMALDDLHKMNHVTPPNVSLGAT,1.74
25,FVPALDDLHKMNHVTPPNVSLGAT,2.97

# Variants of: B2
# Assay: as above
# Conditions: c terminus: a fixed tail appended
row,Variant,protein stability index
1,KYMPHLCQDSSGEVSCQCQLHPVR,2.87
2,KYMPHLCQDSSGEVSCQCQLHPYR,2.07
3,KYMPHLCQDSSGEVSCQCQLHPQR,2.29
4,KYMPHLCQDSSGEVSCQCQLHPAR,2.34
5,KYMPHLCQDSSGEVSCQCQLHPKR,2.35
6,KYMPHLCQDSSGEVSCQCQLHPWR,2.34
7,KYMPHLCQDSSGEVSCQCQLHPLR,2.38
8,KYMPHLCQDSSGEVSCQCQLHPFR,2.32
9,KYMPHLCQDSSGEVSCQCQLHPNR,2.85
10,KYMPHLCQDSSGEVSCQCQLHPHR,2.66
11,KYMPHLCQDSSGEVSCQCQLHPTR,2.02
12,KYMPHLCQDSSGEVSCQCQLHPCR,3.96
13,KYMPHLCQDSSGEVSCQCQLHPIR,2.24
14,KYMPHLCQDSSGEVSCQCQLHPSR,2.47
15,KYMPHLCQDSSGEVSCQCQLHPGR,3.38
16,KYMPHLCQDSSGEVSCQCQLHPDR,3.71
17,KYMPHLCQDSSGEVSCQCQLHPER,3.48
18,KYMPHLCQDSSGEVSCQCQLHPMR,2.2
19,KYMPHLCQDSSGEVSCQAQLHPPR,3.46
20,KYMPHLCQDSSGEVSCQTQLHPPR,3.35
21,KYMPHLCQDSSGEVSCQKQLHPPR,3.44
22,KYMPHLCQDSSGEVSCQDQLHPPR,3.65

row,Variant,protein stability index
1,KYMPHLCQDSSGEVSCQMQLHPPR,2.54
2,KYMPHLCQDSSGEVSCQEQLHPPR,3.62
3,KYMPHLCQDSSGEVSCQFQLHPPR,1.93
4,KYMPHLCQDSSGEVSCQLQLHPPR,3.35
5,KYMPHLCQDSSGEVSCQNQLHPPR,4.32
6,KYMPHLCQDSSGEVSCQIQLHPPR,3.34
7,KYMPHLCQDSSGEVSCQQQLHPPR,3.6
8,KYMPHLCQDSSGEVSCQPQLHPPR,3.55
9,KYMPHLCQDSSGEVSCQYQLHPPR,1.69
10,KYMPHLCQDSSGEVSCQRQLHPPR,3
11,KYMPHLCQDSSGEVSCQSQLHPPR,3.79
12,KYMPHLCQDSSGEVSCQVQLHPPR,3.48
13,KYMPHLCQDSSGEVSCQHQLHPPR,2.94
14,KYMPHLCQDSSGEVSCQWQLHPPR,2.44
15,KYMPHLCQDSSGEVSCQCQLHPPL,3.85
16,KYMPHLCQDSSGEVSCQCQLHPPY,3.87
17,KYMPHLCQDSSGEVSCQCQLHPPN,4.28
18,KYMPHLCQDSSGEVSCQCQLHPPV,3.23
19,KYMPHLCQDSSGEVSCQCQLHPPK,3.26
20,KYMPHLCQDSSGEVSCQCQLHPPE,4.59
21,KYMPHLCQDSSGEVSCQCQLHPPF,3.39
